Measurements taken from paper PMC11230452 (bioRxiv, 2024).

Target: the molecule itself
Assay: cryo-EM structure

Row | Protein | stoichiometry N | binding result
1 | K2P13.1EM (human K2P13.1 (THIK-1) residues 1-350, N59Q/N65Q) (domain or fragment, UniProt Q9HB14 1-350, looked up) MAGRGFSWGPGHLNEDNARFLLLAALIVLYLLGGAAVFSALELAHERQAKQRWEERLAQFSRGHQLSRDELRGFLRHYEEATRAGIRVDNVRPRWDFTGAFYFVGTVVSTIGFGMTTPATVGGKIFLIFYGLVGCSSTILFFNLFLERLITIIAYIMKSCHQRQLRRRGALPQESLKDAGQCEVDSLAGWKPSVYYVMLILCTASILISCCASAMYTPIEGWSYFDSLYFCFVAFSTIGFGDLVSSQNAHYESQGLYRFANFVFILMGVCCIYSLFNVISILIKQSLNWILRKMDSGCCPQCQRGLLRSRRNVVMPGSVRNRCNISIETDGVAESDTDGRRLSGEMISMK | 2 | 
2 | K2P13.1EM S136P/Y273A (domain or fragment, human, UniProt Q9HB14 1-350, looked up) MAGRGFSWGPGHLNEDNARFLLLAALIVLYLLGGAAVFSALELAHERQAKQRWEERLAQFSRGHQLSRDELRGFLRHYEEATRAGIRVDNVRPRWDFTGAFYFVGTVVSTIGFGMTTPATVGGKIFLIFYGLVGCPSTILFFNLFLERLITIIAYIMKSCHQRQLRRRGALPQESLKDAGQCEVDSLAGWKPSVYYVMLILCTASILISCCASAMYTPIEGWSYFDSLYFCFVAFSTIGFGDLVSSQNAHYESQGLYRFANFVFILMGVCCIASLFNVISILIKQSLNWILRKMDSGCCPQCQRGLLRSRRNVVMPGSVRNRCNISIETDGVAESDTDGRRLSGEMISMK |  | binds
